According to US10202627B2, “Method for producing trehangelin” (THE KITASATO INSTITUTE, priority 2016, dated 2019):

Key:
[1] = test system: animal cells (particularly, human cells); conditions: cited from earlier work
[2] = acyltransferase activity of OrfC inferred from Streptomyces albus/pOSV556-orfABCD culture; format: cell-based, Streptomyces albus J1074; conditions: inferred from Examples 1 to 4
Method: Streptomyces albus/pOSV556-orfABCD was grown by shake culture in 10 ml of a liquid medium containing 1% yeast extract and 1% glucose at 27° C. for 1 day, which was then added 1 ml of 20% trehalose aqueous solution, and the shake culture was continued at 27° C. for 4 more days. The obtained culture medium was added 10 ml of ethanol and stirred for 1 hour. Ethanol in the extract was then removed by distillation under reduced pressure, and 5 ml of ethyl acetate was added to the obtained aqueous solution, which was thoroughly stirred, and then the ethyl acetate phase was collected. After concentration to dryness, the solid was dissolved in 100 μl of methanol and analysed on LC/MS to confirm production of trehangelin (FIG. 1).

[3] = enoyl-CoA hydratase activity of recombinant OrfA, LC/MS; format: biochemical; conditions: 15.8 μg orfA with orfB and orfD, 500 μM NADPH, pH 7.5, 27° C., 16 hours
Method: (§1) A substrate of the target enzyme is added to the reaction solution. Specifically, in a 3-ketoacyl-CoA synthase activity assay, acetyl-CoA and methylmalonyl-CoA are added. In a 3-ketoacyl-CoA reductase activity assay, 2-methylacetoacetyl-CoA is added. In an enoyl-CoA hydratase activity assay, 3-hydroxy-2-methylbutyryl-CoA is added. In an acyltransferase activity assay, angelyl-CoA is added. The concentration of the substrate may be any concentration as far as it has no effect on the reaction, and is suitably 0.01 mM to 0.2 M of the reaction solution. The enzyme concentration for the reaction is not particularly limited, and is usually in a range of 0.001 mg/ml to 100 mg/ml.
(§2) The activity may be detected by a method that can measure a decrease of substrates or an increase of reaction products during the reaction. Examples of such methods include a method that separates and quantifies a target substance optionally by using thin layer chromatography, column chromatography, high-performance liquid chromatography (HPLC) and the like. […]
(§3) Next, it was examined whether the obtained recombinant enzyme protein (OrfA) catalysed production of angelyl-CoA from 3-hydroxy-2-methylbutyryl-CoA by employing the following reaction conditions. […] After termination of the reaction by adding 100 μl of methanol, it was analysed on LC/MS.

[4] = 3-ketoacyl-CoA reductase activity of recombinant OrfD, LC/MS; format: biochemical; conditions: 0.8 μg orfD with 2.5 μg orfB, 500 μM NADPH, pH 7.5, 27° C., 16 hours
Method: as §1, §2
as §3, with “(OrfD)” for “(OrfA)”, “3-hydroxy-2-methylbutyryl-CoA” for “angelyl-CoA”, “2-methylacetoacetyl-CoA” for “3-hydroxy-2-methylbutyryl-CoA”

[5] = 3-ketoacyl-CoA synthase activity of recombinant OrfB, LC/MS; format: biochemical; conditions: 2.5 μg orfB, 250 μM acetyl-CoA, 250 μM methylmalonyl-CoA, pH 7.5, 27° C., 16 hours
Method: as §1, §2
as §3, with “(OrfB) catalyses” for “(OrfA) catalysed”, “2-methylacetoacetyl-CoA” for “angelyl-CoA”, “acetyl-CoA and methylmalonyl-CoA” for “3-hydroxy-2-methylbutyryl-CoA”

C/C=C(/C)C(=O)OC1C(O)C(CO)OC(OC2OC(CO)C(O)C(OC(=O)/C(C)=C\C)C2O)C1O (stereo not drawn) [Trehangelin A]
toxicity towards animal cells (particularly, human cells) [1]: do not exhibit toxicity

C/C=C(/C)C(=O)OC1C(OC2OC(CO)C(O)C(OC(=O)/C(C)=C\C)C2O)OC(CO)C(O)C1O (stereo not drawn) [Trehangelin B]
toxicity towards animal cells (particularly, human cells) [1]: do not exhibit toxicity

B1: OrfC: enzyme protein encoded by SEQ ID NO: 6, acyltransferase from Polymorphospora rubra K07-0510 (protein)
chain: MTTSALGAEPGATDPPAAPPVSYAPSGRMPRTINRWPRPFAPRNILGVLRARLRGATISLNQVKFDESTAERNALVMEHALLRHSHVARYAIVGPFTSLFKVRVGPYAGIAEKVTVGALPHWPELPTSHVFPVNAEFGFCAGEWPEVPGTEVGADAWIGAGAVVRAGVRIGHGAIVAAGAVVTRDVADYEIVAGVPARRLRSRFPDDLAERLVALAWWDWPPGFIKANIDLFQRPLTADTLAALEERARALPTPPGGAA
modifications: Polymorphospora rubra K07-0510; CDS (1)..(780)
acyltransferase activity (trehangelin from angelyl-CoA and trehalose) [2]: had an acyltransferase activity

B2: OrfA: enzyme protein encoded by SEQ ID NO: 2, enoyl-CoA hydratase from Polymorphospora rubra K07-0510 (protein)
chain: VTRPDAPGPPVAAPDPADAVVTAVEPYVVRATINRPARRNAIDLAVIEGLERAIDLAEATGARVLVLRGAGGTFCSGADLRVLEEMSVDPHRVETFMVRLALVLRRLETARFVSVAVVEGHAVAGGCEILLACDVSVAATDARIGDRHLEYGLVPAAGGSVRLARTLPKARGNYLLLAADLLTGEQAAQWGLVSVAVPPTDLEPRVDALVGRLVGHSADALAVVKKMVWTADHEPRPDAMSWERRLFLRHLGSEDVSEGLRAFRERRRPAFRADD
modifications: Polymorphospora rubra K07-0510; CDS (1)..(828)
production of angelyl-CoA from 3-hydroxy-2-methylbutyryl-CoA [3]: production of angelyl-CoA was observed

B3: OrfD: enzyme protein encoded by SEQ ID NO: 8, 3-ketoacyl-CoA reductase from Polymorphospora rubra K07-0510 (protein)
chain: VTAGTGQPVVAAPGRALADRVVVVTGASRGVGRDLARVFADHGARLGLLARSRDALDDLGGTLTAAGADVLAVPCDVGEPDSLAGAVDAVAGHFGGIDSVVVNAGISPVARRAHHLPIDAWHDVLATNLTGGFVTARAAYPHLARSGRGRLVFTTSVMAATPRRGLSAYAASKAGLEGLTRALAADWAGDGILVNAVAPGFFDTGLGAAFHTSQRLHEQVVGRTPVARFGRADELAAAFVFLAGDACGYLTGQVLAVDGGYGLG
modifications: Polymorphospora rubra K07-0510; CDS (1)..(795)
production of 3-hydroxy-2-methylbutyryl-CoA from 2-methylacetoacetyl-CoA [4]: production of 3-hydroxy-2-methylbutyryl-CoA was observed

B4: OrfB: enzyme protein encoded by SEQ ID NO: 4, 3-ketoacyl-CoA synthase from Polymorphospora rubra K07-0510 (protein)
chain: MSTSTVIGTGSYLPRRVLSSGELARRVGVAENWIVEKTGIRERRVAADEEATSDLATRAARRALRTARLDPADVDLIVLATSTPDRPMPATASTVQANLGARQAVAFDVDAVCSGFVYALVVAHSMLNSEGWARTALVIGADTYSRVLDYTDRRTAVLFGDGAGAVVLGRETGGGSGIRATTLGTDGTLADLVQIPAGGSRRPASAQTVEAGDHYFAMRGGDVRRLANQVFPALVGQLLKAASLDLDQVDLIAAHQANGTMLTDWSRDLGLRPGVLHRTVERYGNTGAASVPVTLDDAVRTGRLGAAATLLMVAFGGGMTWGGVALDWSADPSVPRSNCVR
modifications: Polymorphospora rubra K07-0510; CDS (1)..(1026)
production of 2-methylacetoacetyl-CoA from acetyl-CoA and methylmalonyl-CoA [5]: production of 2-methylacetoacetyl-CoA was observed
